# According to US6218168A, “Process for preparing O-acetylserine, L-cysteine and L-cysteine-related products” (Consortium fur elektrochemische Inudstrie GmbH, priority 1995, dated 2001):
# Tests used:
# JM15attλ::cysE strains = assay: Cysteine production in 1 L fermenter, chromosomally encoded cysE alleles; assay type: cell-based, E. coli; settings: single chromosomal copy
# Experimental: For the purpose of being integrated into the chromosomal attachment site (attλ), the cysE alleles cysEIV, cysEX and cysEXI were cloned into the plasmid pRS551 (Simons et al., 1987, Gene 53: 85-96). For this, each cysE allele was amplified by PCR from the corresponding cysE plasmid. The oligonucleotides which were used, i.e. cysE-fwl and cysE-revl, are described in Example 1. The amplification was carried out as described in Example 3. The resulting fragments were cleaved with EcoRI/BamHI, purified through an agarose gel and ligated into vector pRS551 which had been cleaved with EcoRI and BamHI. This afforded the vector pRS551-based recombinant plasmids pRScysEIV, X and XI.
# A heterogeneous lambda lysate, which contained recombinant cysE allele-carrying λRS45 derivatives in addition to λRS45 phages, was produced in vivo by homologous recombination by means of preparing a plate lysate on a pRScysE-carrying recA^+ strain (e.g. YMC9, ATCC 3397) using the λRS45 phage (Simons et al., 1987, Gene 53: 85-96).
# The cysE strain JM15, which was infected with the heterogeneous lambda lysate and subsequently plated on kanamycin-containing (25 mg/L) LB plates, was used for selecting for the recombinant RS45 derivatives. The lysogenic, kanamycin-resistant clones which were obtained were then tested for their ability to grow on minimal medium plates without cysteine. A clone which was in each case cysteine-prototrophic was selected and used for preparing a homogeneous cysE λ lysate (by means of UV induction, Simons et al., 1987, Gene 53: 85-96).
# The JM15 stain was infected with these homogeneous cysE λ lysates which were obtained in each case. The resulting JM15attλ::cysE strains were cultured as described in Example 6. Instead of tetracycline, the respective media in each case contained 25 mg of kanamycin per L as the selection agent.
# [1] = tested on: Corynebacterium glutamicum ATCC21851; assay: Cysteine production by fermentation using corynebacteria with pWST1-cysE plasmids; assay type: cell-based; settings: allele on pWST1 plasmid; compared with cysEIV, cysEX, cysEXIV
# Excerpt: The feedback-resistant cysE alleles, cysEIV, cysEX, cysEXI and cysEXIV (cf. Tab. 2 in Example 1), were cleaved out of their corresponding plasmids using the restriction enzymes BamHI and EcoRI (from Boehringer Mannheim) and each respective 1.15 kb-sized DNA fragment was purified through an agarose gel and isolated. The respective DNA fragment was rendered blunt-ended using the Klenow fragment of E. coli DNA polymerase I (from Boehringer Mannheim). The vector pWST1 was hydrolyzed with the restriction enzyme Smal (from Boehringer Mannheim) and ligated to the blunt-ended DNA fragment using T4 DNA ligase. The vector pWST1 is an E. coli/Corynebacterium shuttle vector and can replicate both in E. coli and in corynebacteria. The corynebacterial replicon of this vector originates from the Corynebacterium glutamicum strain ATCC 19223. The preparation of vector pWST1 is described in U.S. Pat. No. 4,965,197. The ligation mixture was used to transform the mutant JM15, which is auxotrophic for cysteine. The complementing plasmids were designated pWST1-cysEIV, pWST1-cysEX, pWST1-cysEXI and pWST1-cysEXIV in accordance with their inserted cysE alleles.
# The pWST1-cysE plasmids were used to transform the Corynebacterium glutamicum ATCC21851. The transformation was carried out by electroporation using the technique described in detail in Liebl, W. et al., 1989, FEMS Microbiol. Letters, 65, 299-304. […]
molecule,measurement,setting,value
"cysEXI: double mutant Thr167->Ala167, Gly245->Ser245 (protein, UniProt P0A9D4 1-273, looked up, variant T167A G245S) Serine acetyltransferase: MSCEELEIVWNNIKAEARTLADCEPMLASFYHATLLKHENLGSALSYMLANKLSSPIMPAIAIREVVEEAYAADPEMIASAACDIQAVRTRDPAVDKYSTPLLYLKGFHALQAYRIGHWLWNQGRRALAIFLQNQVSVTFQVDIHPAAKIGRGIMLDHATGIVVGEAAVIENDVSILQSVTLGGTGKSGGDRHPKIREGVMIGAGAKILGNIEVGRGAKIGAGSVVLQPVPPHTTAAGVPARIVSKPDSDKPSMDMDQHFNGINHTFEYGDGI",yields of cysteine,JM15attλ::cysE strains,2.1 g/L
same,cysteine yields,[1],highest cysteine yields
